Experimental findings from patent US20140377215A1 (BOARD OF TRUSTEES OF THE UNIVERSITY OF ARKANSAS, published 2014) are described below.

In one assay the target is [(POG)3PCG(POG)4]3. Put plainly: 1H-15N HSQC NMR titration.
Assay [1] deals with [11PROXYL-(POG)3PCG(POG)4]3. The experiment in a line: 1H-15N HSQC NMR titration.

B1: collagen-binding domain (CBD), s3b (Gly893-Lys1008) peptide derived from Clostridium histolyticum cl (other)
chain: GNEKLKEKENNDSSDKATVIPNFNTTMQGSLLGDDSRDYYSFEVKEEGEVNIELDKKDEFGVTWTLHPESNINDRITYGQVDGNKVSNKVKLRPGKYYLLVYKYSGSGNYELRVNK
notes: range 893-1008
Turning to B1, the binding result in assay [(POG)3PCG(POG)4]3 and in assay [1] was “binds” in each case.
